Changes are numbered by the printed parent chain. In names and notes the source's numbering stands.

Substrate in data set [1]: O=[N+]([O-])c1ccc(OC2O[C@H](CO)[C@@H](O[C@H]3O[C@H](CO)[C@@H](O[C@H]4O[C@H](CO)[C@@H](O[C@H]5O[C@H](CO)[C@@H](O[C@H]6O[C@H](CO)[C@@H](O)[C@H](O)[C@H]6O)[C@H](O)[C@H]5O)[C@H](O)[C@H]4O)[C@H](O)[C@H]3O)[C@H](O)[C@H]2O)cc1
Nature of the data set: Enzymatic activity with 4NP-DP5 as substrate, Michaelis-Menten kinetics (WT). To be noted: other: substrate 4NP-DP5 0-1 mM, 35° C., 50 mM MOPS, 50 mM NaCl, 2 mM CaCl2, pH 7.15, WT α-amylase. Format: biochemical, Bacillus licheniformis. How it is done:
(§1) The enzymatic activity of B. licheniformis α-amylase WT and mutants was measured using 4-nitrophenyl-maltopentaoside (4NP-DP5) as a substrate, 4 nitrophenol and maltopentaose are formed, this reaction can be followed by measuring the change in OD 405 The assay was performed at 35° C. in 50 mM MOPS, 50 mM NaCl, 2 mM CaCl2 (PH 7.15) and 0-1 mM 4NP-DP5.
(§2) Initial rates were measured and E-nitrophenol was taken as 10,000 l/M/cm.

Substrate in data set [2]: O=[N+]([O-])c1ccc(OC2O[C@H](CO)[C@@H](O[C@H]3O[C@H](CO)[C@@H](O[C@H]4O[C@H](CO)[C@@H](O[C@H]5O[C@H](CO)[C@@H](O[C@H]6O[C@H](CO)[C@@H](O)[C@H](O)[C@H]6O)[C@H](O)[C@H]5O)[C@H](O)[C@H]4O)[C@H](O)[C@H]3O)[C@H](O)[C@H]2O)cc1
Nature of the data set: Enzymatic activity with 4NP-DP5 as substrate, Michaelis-Menten kinetics (mutant 2D5). Conditions: other: substrate 4NP-DP5 0-1 mM, 35° C., 50 mM MOPS, 50 mM NaCl, 2 mM CaCl2, pH 7.15, 2D5 α-amylase. In kind it is biochemical, Bacillus licheniformis. How it is done:
2D5 contained the D7 mutation and in addition threonine 149 was replaced by isoleucine (2D5=H133Y, T149I).
as §1, §2

B1: Bacillus licheniformis α-amylase, WT (wild type, B. licheniformis T5; SEQ ID NO: 3) (Bacillus licheniformis) (protein)
chain: ANLNGTLMQYFEWYMPNDGQHWKRLQNDSAYLAEHGITAVWIPPAYKGTSQADVGYGAYDLYDLGEFHQKGTVRTKYGTKGELQSAIKSLHSRDINVYGDVVINHKGGADATEDVTAVEVDPADRNRVISGEHRIKAWTHFHFPGRGSTYSDFKWHWYHFDGTDWDESRKLNRIYKFQGKAWDWEVSNENGNYDYLMYADIDYDHPDVAAEIKRWGTWYANELQLDGFRLDAVKHIKFSFLRDWVNHVREKTGKEMFTVAEYWQNDLGALENYLNKTNFNHSVFDVPLHYQFHAASTQGGGYDMRKLLNSTVVSKHPLKAVTFVDNHDTQPGQSLESTVQTWFKPLAYAFILTRESGYPQVFYGDMYGTKGDSQREIPALKHKIEPILKARKQYAYGAQHDYFDHHDIVGWTREGDSSVANSGLAALITDGPGGAKRMYVGRQNAGETWHDITGNRSEPVVINSEGWGEFHVNGGSVSIYVQR
notes: made in house; host or cells: E. coli WK6
As to B1, in data set [1], the Km was determined as 112 µM and the Vmax was found to be 66.7 ± 0.9 µmol/min/mg.

B2: Bacillus licheniformis α-amylase mutant 2D5 (H133Y, T149I) (Bacillus licheniformis; H162Y/T178I) (protein)
chain: B1 chain with H133Y, T149I
notes: as for B1
On to B2, for which, in data set [2], the Km was found to be 119 µM and the Vmax is 66.3 ± 0.7 µmol/min/mg.

In general, Km refers to the substrate concentration at which the rate is half of its maximum. Broadly, the Vmax is the rate approached at saturating substrate.
